In patent publication US20100056762A1 (published 2010):
Each block holds one molecule with its values, some of them ahead of it. Bridges are numbered along the chain shown (N, C = ends). Where no end group is shown, it is not given here.

What was measured:
[1] = target: wild-type epidermal growth factor receptor (wtEGFR) (human) (UniProt P00533); test: Scatchard, A431 cells
wtEGFR-FLAG (human) = wtEGFR-FLAG (human) (UniProt P00533); test: FACS, Ba/F3 cells; reference M2 anti-FLAG
[2] = target: C271A/C283A EGFR mutant (human) (UniProt P00533); test: FACS, Ba/F3 cells, four clones; reference M2 anti-FLAG
[3] = target: T1, EGFR peptide 287-302 (mAb806 peptide epitope) (human, disulfide 1-16); test: BIAcore, immobilised peptide, antibody 200 nM
T1 peptide: CGADSYEMEEDGVRKC

receptors per cell (receptors per cell) [1]: 2e+06 | ratio of antibody binding mAb 528/M2 (ratio of median fluorescence) (wtEGFR-FLAG (human)): 1.37 | ratio of antibody binding mAb 528/M2 (ratio of median fluorescence) [2]: 1.08
Molecule: 528 antibody

maximal binding (RU) [3]: 800 RU
B1: mAb1133 (antibody, V domains shown)
VH: DVQLQGSGPSLVKPSQSLSLTCTVTGYSITSDYAWNWIRQFPGNKLEWMGYISYSGNTRYNPSLRSRISITRDTSKNQFFLQLNSVTTEDTATYYCATAGRGFPYWGQGTLVTVSA
VL: DILMTQSPSSMSVSLGDTVNITCHSSQDINSNIGWLQQKPGKSFKGLIYHGTNLDDGVPSRFSGSGSGADYSLTISSLESEDFADYYCVQYGQFPWTFGGGTKLEIKR
notes: murine IgG2a; also called 1133 antibody; clone 1133
